Data as given in patent publication US20250064952A1 (ACCELERON PHARMA, published 2025).

Legend:
ActRIIB-Fc homodimer [1] = target: T1, ActRIIB-Fc homodimer (human, UniProt Q13705 19-137); experiment: SPR (Biacore), anti-Fc capture, ligand in flow
T1 construct: extracellular domain; also called unmodified ActRIIB-Fc homodimer; ActRIIB-Fc:ActRIIB-Fc homodimer
T1 sequence (looked up): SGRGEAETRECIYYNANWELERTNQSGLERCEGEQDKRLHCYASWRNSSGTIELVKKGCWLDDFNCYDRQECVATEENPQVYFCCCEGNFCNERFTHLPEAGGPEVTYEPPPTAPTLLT
Description: (§1) A Biacore™-based binding assay was used to compare ligand binding selectivity of the ActRIIB-Fc:ALK7-Fc heterodimeric complex described above with that of ActRIIB-Fc and ALK7-Fc homodimeric complexes. The ActRIIB-Fc:ALK7-Fc heterodimer, ActRIIB-Fc homodimer, and ALK7-Fc homodimer were independently captured onto the system using an anti-Fc antibody. Ligands were injected and allowed to flow over the captured receptor protein. Results are summarized in the table below, in which ligand off-rates (kd) most indicative of effective ligand traps are denoted by bold font.

ActRIIA-mFc = target: T2, ActRIIA-mFc (human, UniProt P27037 20-135); experiment: similar Biacore binding assay
T2 construct: extracellular domain; not shown: minimal linker, not specified for the mouse construct
T2 sequence (P27037 20-135): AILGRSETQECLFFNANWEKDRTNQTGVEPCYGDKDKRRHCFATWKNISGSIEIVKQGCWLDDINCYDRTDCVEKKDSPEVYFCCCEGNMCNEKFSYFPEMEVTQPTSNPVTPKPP
Description: GDF11 or activin A were immobilized on a Biacore™ CMS chip using standard amine-coupling procedure. ActRIIA-hFc and ActRIIA-mFc proteins were loaded onto the system, and binding was measured. […] See FIG. 15A-B. Using a similar binding assay, ActRIIA-hFc was determined to have high to moderate affinity for other TGF-beta superfamily ligands including, for example, activin B, GDF8, BMP6, and BMP10. ActRIIA-mFc behaved similarly.

ActRIIB-Fc homodimer [2] = target: T1, ActRIIB-Fc homodimer; experiment: SPR (Biacore), anti-Fc capture, ligand in flow; remark: listed apart in the source
Description: as §1, with “ActRIIB-Fc:ALK4-Fc” for “ActRIIB-Fc:ALK7-Fc”, “ALK4-Fc homodimer” for “ALK7-Fc homodimeric”, “ALK4-Fc” for “ALK7-Fc”

ActRIIB-Fc homodimer [3] = target: T1, ActRIIB-Fc homodimer; experiment: SPR (Biacore), 37 C, anti-Fc capture, ligand in flow
Description: A Biacore™-based binding assay was used to compare the ligand binding kinetics of an ActRIIB-Fc:ActRIIB(L79E)-Fc heterodimer with those of unmodified ActRIIB-Fc homodimer. Fusion proteins were captured onto the system using an anti-Fc antibody. Ligands were then injected and allowed to flow over the captured receptor protein at 37° C. Results are summarized in the table below, in which ligand off-rates (kd) most indicative of effective ligand traps are denoted in bold.

- Kd (ActRIIB-Fc homodimer [1]): 8 pM
- koff (ActRIIB-Fc homodimer [1]): 0.00016 s⁻¹
- kon (ActRIIB-Fc homodimer [1]): 1.5e+07 M⁻¹ s⁻¹
- binding result (ActRIIA-mFc): binds
- Kd (ActRIIB-Fc homodimer [2]): 20 pM
- koff (ActRIIB-Fc homodimer [2]): 0.0001 s⁻¹
- kon (ActRIIB-Fc homodimer [2]): 5.1e+06 M⁻¹ s⁻¹
- Kd (ActRIIB-Fc homodimer [3]): 8 pM
- koff (ActRIIB-Fc homodimer [3]): 6.6e-05 s⁻¹
- kon (ActRIIB-Fc homodimer [3]): 8.1e+06 M⁻¹ s⁻¹
B1: activin B (ligand, UniProt P09529 293-407, looked up)
chain: GLECDGRTNLCCRQQFFIDFRLIGWNDWIIAPTGYYGNYCEGSCPAYLAGVPGSASSFHTAVVNQYRMRGLNPGTVNSCCIPTKLSTMSMLYFDDEYNIVKRDVPNMIVEECGCA
